Assay results as given in EP0577752B2.

Target: IL-8 binding sites on human neutrophils (human)
Assay: competition of 125I-IL-8 by unlabelled IL-8 on human neutrophils, 2 hr at 4 degrees

human 72 amino acid IL-8 (from UniProt P10145 21-99) (ligand)
Kd: 1.1 nM | binding sites/cell (binding sites/cell): 31000
